Data on six molecules can be found in US20170101470A1 (PROTHENA BIOSCIENCES, published 2017).

Test [1] addresses T1, human MCAM expressed on CHO cells (full length human MCAM gene) (human, UniProt P43121 24-646).
T1 construct: also called hMCAM expressing CHO cells; CD146
T1 chain: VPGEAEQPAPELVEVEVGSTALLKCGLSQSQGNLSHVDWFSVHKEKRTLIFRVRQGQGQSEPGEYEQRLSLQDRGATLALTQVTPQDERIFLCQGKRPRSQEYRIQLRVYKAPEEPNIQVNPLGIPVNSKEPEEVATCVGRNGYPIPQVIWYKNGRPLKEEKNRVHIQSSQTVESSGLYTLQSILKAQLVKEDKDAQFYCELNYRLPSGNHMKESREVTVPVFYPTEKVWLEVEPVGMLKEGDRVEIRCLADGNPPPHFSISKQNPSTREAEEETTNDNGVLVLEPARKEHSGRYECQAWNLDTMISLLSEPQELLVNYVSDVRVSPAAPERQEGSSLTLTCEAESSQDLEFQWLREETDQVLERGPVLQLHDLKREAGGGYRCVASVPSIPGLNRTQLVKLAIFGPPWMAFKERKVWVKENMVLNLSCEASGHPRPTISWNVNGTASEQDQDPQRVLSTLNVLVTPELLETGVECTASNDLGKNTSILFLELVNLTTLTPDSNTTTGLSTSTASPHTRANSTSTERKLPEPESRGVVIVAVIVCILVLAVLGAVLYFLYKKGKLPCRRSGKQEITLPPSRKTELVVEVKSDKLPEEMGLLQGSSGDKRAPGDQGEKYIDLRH
Nature of the test: flow cytometry: blocking of recombinant human laminin 411 (20 ug/ml) binding to CHO cells expressing human MCAM. The procedure: The 87 independent mouse fusion clones and 26 independent rat fusion clones described in Example 1 above as being capable of (i) binding to human MCAM, and (ii) blocking the interaction between human MCAM and the α-4 chain of laminin were further characterized as follows. First, IC50 quantitation for the ability of the monoclonal antibody to block the binding of human MCAM to the α-4 chain of laminin was determined as follows. CHO cells expressing human MCAM were incubated with an anti-human MCAM antibody (at various concentrations) for 30 minutes at 4 degrees Celsius. […] Unbound laminin was then washed away, and the laminin bound to the surface of the cells was detected with fluorescently labeled anti-laminin antibodies. After washing, the amount of laminin bound to the surface was detected by flow cytometry, and IC50s were calculated based on the mean fluorescent intensity.
Amino acid and nucleic acid sequences of the heavy and light chains of these antibodies, and their hypervariable regions, are provided in SEQ ID NOs:29-92. […] As such, each of these specific monoclonal antibodies was very capable of binding to human MCAM and inhibiting the interaction of cell-expressed human MCAM with its α-4 laminin binding ligand.

Test [2] addresses T2, human MCAM domain 1 hFc construct (human, UniProt P43121 19-129).
T2 construct: One of the 'various MCAMhFc domains' loaded on the ForteBio sensors; also called MCAMhFc domain 1
T2 sequence: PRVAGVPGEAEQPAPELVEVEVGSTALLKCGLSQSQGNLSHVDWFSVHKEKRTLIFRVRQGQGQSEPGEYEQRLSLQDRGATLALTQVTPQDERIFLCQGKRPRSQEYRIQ
As to the kind of experiment: ForteBio Octet Red, MCAMhFc domains on anti-human IgG Fc sensors. The text has this: (§1) The following protocol was used: ForteBio anti-human IgG Fc biosensors were used to immobilize various MCAMhFc domains including full length MCAMhFc protein on to biosensor surface. […] After loading these samples into a black 96 well plate, the Octet Red was programmed as follows: 60 seconds for baseline #1; 180 seconds for loading various domains; 60 seconds for baseline #2; 180 seconds for association of antibody to domain; and 240 seconds for dissociation of antibody from domain.
(§2) Reagents and Supplies Used: [0358] 1. MCAMhFc final concentration @ 5 ug/ml [0359] […] 3. ForteBio anti-human IgG Fc Capture (AHC) biosensors for kinetics experiments, cat#18-5060 [0361] 4. Block 96 well plate from Greiner Bio-one, cat#655209 [0362] 5. ForteBio Octet Red machine [0363] 6. Fresh tissue culture medium, DMEM with 20% FCS, was used as buffer for dilution
(In general: In BLI a coated tip is dipped into the sample, and binding shifts an interference pattern.)

In test [3] the target is T3, recombinant hMCAM-His (human, UniProt P43121 24-559).
T3 chain: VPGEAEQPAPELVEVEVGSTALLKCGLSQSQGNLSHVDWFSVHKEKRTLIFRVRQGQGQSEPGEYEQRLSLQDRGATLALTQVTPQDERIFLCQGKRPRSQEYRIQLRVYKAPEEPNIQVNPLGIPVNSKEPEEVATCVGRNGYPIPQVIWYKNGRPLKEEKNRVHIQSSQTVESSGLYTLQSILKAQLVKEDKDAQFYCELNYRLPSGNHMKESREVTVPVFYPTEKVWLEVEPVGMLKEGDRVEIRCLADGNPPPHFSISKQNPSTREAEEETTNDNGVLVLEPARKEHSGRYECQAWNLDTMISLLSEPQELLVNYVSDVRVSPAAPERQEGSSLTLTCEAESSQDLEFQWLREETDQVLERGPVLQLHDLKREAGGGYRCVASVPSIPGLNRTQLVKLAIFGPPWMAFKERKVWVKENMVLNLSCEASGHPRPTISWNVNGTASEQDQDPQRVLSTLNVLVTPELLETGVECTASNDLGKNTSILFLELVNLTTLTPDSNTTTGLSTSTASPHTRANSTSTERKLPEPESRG
As to the kind of experiment: competitive ELISA on coated hMCAM-His, competitor biotinylated rodent or chimeric 2120; IC50 relative to rodent 2120. As for the experimental part:
The apparent affinities of the humanized antibodies were compared to the parental rodent or chimeric antibody in a competitive ELISA according to the following protocol: ELISA plates were coated with recombinant hMCAM-His, and blocked with casein buffer to prevent non-specific binding. Biotinylated rodent or chimeric antibody was added at a subsaturating concentration, in the presence or absence of 3× increasing concentrations of unlabeled competitor (humanized antibody, rodent, or chimeric). After washing to remove unbound antibody, streptavidin HRP was added to allow detection of the biotinylated antibody. The ELISA was developed with TMB substrate and the OD450 was measured. The IC50 of the unlabeled competitor was determined using the GraphPad Prism5 software.
(In general: An ELISA detects its analyte on a solid surface through an enzyme-linked reagent.)

Test [4] concerns the target T1, human MCAM expressed on CHO cells (full …). As to the kind of experiment: laminin/FACS assay: blocking of recombinant laminin 411 binding to hMCAM expressing CHO cells, relative to rodent 2120, Expt#2. The procedure: (§3) Following incubation for 30-45 minutes, the cells were washed and anti-laminin conjugated to AF650 (NovusBio) was added to detect the bound laminin. The cells were run on a flow cytometer to measure the laminin binding signal.

The target of test [5] is T3, recombinant hMCAM-His. As to the kind of experiment: ForteBio Octet Red, antibody on anti-human Fc sensors, hMCAMHis analyte, 1:1 fit; affinity relative to rodent 2120, first Forte column. The procedure:
The affinities were measured using the ForteBio Octet Red. Anti-human Fc sensors were used to capture the humanized antibodies, and several concentrations of hMCAMHis analyte were used to determine the affinity using a 1:1 fitting model.

Test [6] concerns the target T1, human MCAM expressed on CHO cells (full …). Nature of the test: laminin/FACS assay: blocking of recombinant laminin 411 binding to hMCAM expressing CHO cells, relative to rodent 2120, Expt#1. As for the experimental part:
as §3

Test [7] deals with T4, human MCAM domain 3 hFc construct (human, UniProt P43121 244-321).
T4 construct: One of the 'various MCAMhFc domains' loaded on the ForteBio sensors; also called MCAMhFc domain 3
T4 sequence: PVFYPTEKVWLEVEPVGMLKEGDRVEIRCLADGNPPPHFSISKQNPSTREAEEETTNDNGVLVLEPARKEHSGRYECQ
As to the kind of experiment: ForteBio Octet Red, MCAMhFc domains on anti-human IgG Fc sensors, antibody at 5 ug/ml.
Text: as §1, §2

The target in test [8] is T5, human MCAM-Fc protein (extracellular domain of human MCAM fused to human IgG) (human, UniProt P43121 24-559).
T5 construct: also called hMCAM-Fc; MCAMhFc
T5 chain: T3 chain
Nature of the test: summary sentence of Example 3 (ForteBio, MCAMhFc).
Text: as §1, §2

In test [9] the target is T6, human MCAM domain 2 hFc construct (human, UniProt P43121 139-242).
T6 construct: One of the 'various MCAMhFc domains' loaded on the ForteBio sensors; also called MCAMhFc domain 2
T6 sequence: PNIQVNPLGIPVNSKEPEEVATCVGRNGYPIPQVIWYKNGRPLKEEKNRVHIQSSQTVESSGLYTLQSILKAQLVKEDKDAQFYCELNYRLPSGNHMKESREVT
Nature of the test: ForteBio Octet Red, MCAMhFc domains on anti-human IgG Fc sensors.
Text: as §1, §2

Test [10] addresses T7, human MCAM domains 1 and 2 hFc construct (human, UniProt P43121 19-242).
T7 construct: One of the 'various MCAMhFc domains' loaded on the ForteBio sensors
T7 sequence: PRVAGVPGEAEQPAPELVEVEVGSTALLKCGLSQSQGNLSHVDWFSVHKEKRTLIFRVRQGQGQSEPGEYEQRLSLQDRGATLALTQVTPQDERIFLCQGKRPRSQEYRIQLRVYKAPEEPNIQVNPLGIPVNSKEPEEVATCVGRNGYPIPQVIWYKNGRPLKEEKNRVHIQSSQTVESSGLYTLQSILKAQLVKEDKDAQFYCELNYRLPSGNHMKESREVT
The test is described as above.
Text: as §1, §2

Changes are numbered by the printed parent chain.

B1: rat anti-human MCAM monoclonal antibody clone 2107.4.10 (antibody, V domains shown)
VH: QVQLKESGPGLVQSSQTLSLTCTVSGFSLTSNGVSWVRQPPGKGLEWIAAISSGGSTYYNSAFKSRLSISRNTSKSQVLLKMNSLQTEDTGMYFCARHRPFYFDYWGQGVMVTVSS
VL: DIQVTQSPSLLSASVGDRVTLNCKGSQNIYKSLAWFRLKRGEAPKLLIYDANSLQTGIPSRFSGSGSGTDFTLTITSLQPEDVATYFCQQYYSGYTFGAGTKLELK
notes: Rat hybridoma antibody
In general, IC50 refers to the midpoint of a concentration-inhibition curve. On to B1, for which the IC50 in test [1] amounted to 0.29 mg/L. For the same molecule, the binding result in test [2] is reported as “no binding (tested: 5 ug/ml)”.

B2: humanized anti-MCAM antibody h2120_VH1 + h2120_VL1 (antibody, V domains shown)
VH: QVTLKESGPVLVKPTETLTLTCTVSGFSLTSNGVSWVRQPPGKALEWIAAISSGGTTYYNSAFKSRLTISRDTSKSQVVLTMTNMDPVDTATYYCARRYGYGWYFDFWGQGTLVTVSS
VL: DIQMTQSPSSLSASVGDRVTITCKASQNIYNSLAWYQQKPGKAPKVLIFNANSLQTGIPSRFSGSGSGTDFTLTISSLQPEDFATYYCQQFYSGYTFGQGTKLEIK
notes: Human IgG1 / human kappa; also called h2120VH1VL1; Standard VH + standard VL
For the molecule B2, in the test with recombinant hMCAM-His [3], the “Fold over rodent (ELISA)” value was found to be 3.1 fold. Also, the “Fold over rodent (Blocking)” value in test [4] stood at 3.5 fold; in test [6], 2 fold. Moreover, the “Fold over rodent (Forte)” value with recombinant hMCAM-His [5] came out at 8.8 fold.

B3: humanized anti-MCAM antibody h2120_VH1 + h2120_VL2 (antibody, V domains shown)
VH: B2 VH
VL: B2 VL with I58V
notes: Human IgG1 / human kappa; also called h2120VH1VL2; Standard VH + aggressive VL
As to B3, in the test with recombinant hMCAM-His [3], the “Fold over rodent (ELISA)” value came to 3.1 fold. Further, the “Fold over rodent (Blocking)” value in test [4] was determined as 12.6 fold; in test [6], 4.6 fold. Moreover, the “Fold over rodent (Forte)” value with recombinant hMCAM-His [5] was 10.8 fold.

B4: humanized anti-MCAM antibody h2120_VH4 + h2120_VL3 (antibody, V domains shown)
VH: B2 VH with N32Q
VL: B2 VL with T22N
notes: Human IgG1 / human kappa; also called h2120VH4VL3; N-Q deamidate VH + conservative VL
As for B4, the “Fold over rodent (ELISA)” value with recombinant hMCAM-His [3] was 5 fold. Besides, the results for the “Fold over rodent (Blocking)” value in test [4] and in test [6] were 5.6 fold and 3.8 fold, respectively. The “Fold over rodent (Forte)” value with recombinant hMCAM-His [5] came out at 17.4 fold.

B5: mouse anti-human MCAM monoclonal antibody clone 1174.1.3 (antibody, V domains shown)
VH: QIQLVQSGPELKKPGETVKISCKASGYTFTNYGMNWVKQAPGKGLKWMGWINTYTGEPTYADDFKGRFALSLETSASTAYLQINNLKNEDMATYFCARYRYNKYERAMDYWGQGTSVTVSS
VL: DIVLTQSPASLAVSLGQRATISCRASKSVSTSGYSYMYWYQQKPGQPPKLLIYLASNLESGVPARFSGSGSGTDFTLNIHPVEEEDAATYYCQHSRELPFTFGSGTKLEIK
notes: Mouse hybridoma antibody
With B5, in test [1], the IC50 was 0.469 mg/L. Further, the binding result is on record as “binds” in test [7]; “binds” in test [8]; “no binding (tested: 5 ug/ml)” in [9]; “no binding (tested: 5 ug/ml)” in [2]; “no binding (tested: 5 ug/ml)” in [10].

B6: mouse anti-human MCAM monoclonal antibody clone 1414.1.2 (antibody, V domains shown)
VH: EIQLQQTGPELVKPGASVKISCKASGYSFTDYIMLWVKQSHGKSLEWIGNINPYSGSSGYNLKFKGKATLTVDKSSSTAYMQLNSLTSEDSAVYYCARGKDFAMDYWGQGTSVTVSS
VL: DIVMSQSPSSLAVSAGEKVTMSCKSSQSLLNSSTRKNFLAWYQQKPGQSPKLLIYWASTRESGVPDRFTGSGSGTDFTLTISSVQAEDLAVYYCKQSYNRYTFGGGTKLEIK
notes: Mouse hybridoma antibody
Regarding B6, the IC50 in [1] amounted to 0.431 mg/L. In addition, the binding result in test [7] is on record as “binds”; in [8] it was “binds”; in test [9], “no binding (tested: 5 ug/ml)”; in [2], “no binding (tested: 5 ug/ml)”; in test [10], “no binding (tested: 5 ug/ml)”.
